Results reported in patent publication US20190263904A1 (TENEOBIO, published 2019).

target: T1, cynomolgus CD3 (cynomolgus, UniProt Q95LI5 22-198; Q95LI8 22-171); experiment: flow cytometry, parental monospecific anti-CD3 on cyno T-cells
T1 construct: Rats were immunised with cynomolgus CD3-epsilon/delta constructs; also called CD3 protein of Cynomolgus macaque; non-human primate CD3 proteins
T1 sequence (Q95LI5 22-198, chain 1 of 2): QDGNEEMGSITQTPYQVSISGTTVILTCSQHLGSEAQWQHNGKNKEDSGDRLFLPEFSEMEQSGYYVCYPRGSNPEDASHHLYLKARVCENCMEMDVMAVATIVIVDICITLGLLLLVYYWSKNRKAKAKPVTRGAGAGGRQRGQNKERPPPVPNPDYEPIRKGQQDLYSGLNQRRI
T1 sequence (Q95LI8 22-171, chain 2 of 2): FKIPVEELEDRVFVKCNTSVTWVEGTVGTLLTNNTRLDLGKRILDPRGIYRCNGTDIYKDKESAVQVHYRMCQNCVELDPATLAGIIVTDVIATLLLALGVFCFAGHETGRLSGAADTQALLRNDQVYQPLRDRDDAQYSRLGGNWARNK

Cyno T-cell bind (MFI)	Binder
26.2	anti-CD3 FlicAb ID 304703 (SEQ ID NO:39) (antibody, V domains shown, fully human IgG1 with the fixed kappa light chain) VH: QLQLQESGPGLVKPSQTLSLTCTVSGGSISSGGHYWSWIRQHPGKGLEWIGYIHYSGSTYYNPSLKSRVIISVDTSKNQFSLKLRSVTAADTAVYYCARWRHDIFAAYPYYYYGMDVWGQGTLVTVSS VL: not shown
17.4	anti-CD3 FlicAb ID 313329 (SEQ ID NO:6) (antibody, V domains shown, fully human IgG1 with the fixed kappa light chain) VH: QLQLQESGPGLVKPSETLSLTCTVSGGSISSGGHYWSWIRQHPGKGLEWIGYIHHSGSTNYNPSLKSRITISVDTSKNQFSLKVSSVTAADTAVYYCARWRHDIFAAYPYYYYGMDVWGQGTLVTVSS VL: not shown
71.7	anti-CD3 FlicAb ID 313306 (SEQ ID NO:1) (antibody, V domains shown, fully human IgG1 with the fixed kappa light chain; also called αCD3_F1F) VH: QLQLQESGPGLVKPSQTLSLTCSVSGGSIRSGGHYWSWIRQHPGKGLEWIGYIHHSGSTYYNPSLKSRVIISVDTSKNQFSLKLRSVTAADTAIYYCARWRHDIFTTYPYYYYGMDVWGQGTLVTVSS VL: not shown
